This note sets out measurements from the RNAGym collection of RNA variant scans (doi:10.7554/elife.80360).

B1: Hairpin Ribozyme (parent)
chain: GUCCUCUUUCACGUGCGCGUGAAAGAGAGAAGUGAACCAGAGAAACACACGUUGUGGUAUAUUACCUGGUA

In the data set the parent is B1. In words: self-cleavage, relative activity (ratio to wild type); higher = more cleavage; co-transcriptional.
In the case of C38G G56U, the self-cleavage is 0.0935.
Under C38G G56A stands 0.134; under A36U A39G, 0.344; under A39G U58A, 0.217.
Under A39G U58G stands 0.114; under C37G G40C, 0.13.
On to C38U G68C, for which the self-cleavage was 0.171.
As to C38A U52C, the self-cleavage worked out at 0.193.
To C38A U52G belongs 0.0831; to C38A U52A, 0.41; to A39C U62A, 0.159.
To A39C U62G belongs 0.108; to A39U G68U, 0.225.
Under C38G A43C stands 0.198; under C37G C46G, 0.211; under C37G C46U, 0.122.
Regarding C37G C46A, the self-cleavage came out at 0.174.
Turning to C37G U70C, the self-cleavage turned out to be 0.531.
With C38G C46G, the self-cleavage came to 0.161.
To C38G A71C belongs 0.272.
To A39C G40C belongs 0.0323; to C37U A44G, 0.112; to C38A A49U, 0.0928.
Regarding C37G G42A, the self-cleavage was 0.117.
Under C37U G40C stands 0.172; under A39U A71U, 0.19; under A39G A45C, 0.122.
For the variant C37G C65U, the self-cleavage was determined as 0.334.
To C37G C65A belongs 0.179.
To C37U G69C belongs 0.364.
Under A36U G69A stands 0.173.
For A36U G69U, the self-cleavage was determined as 0.228.
To A36U G69C belongs 0.127; to C37A C48U, 0.0819.
To C37A C48G belongs 0.143.
As to C37G A61U, the self-cleavage amounted to 0.155.
To C37U C66A belongs 0.0721.
To C37U C66G belongs 0.195; to C38G U53A, 0.185.
Under A39U G54U stands 0.163; under C38U G56C, 0.171; under C37G G69U, 0.644.
On to A36U G51C, for which the self-cleavage worked out at 0.446.
Under C38A U58G stands 0.204; under C37U C65G, 0.163.
To C37U C65U belongs 0.316.
Under C38A G57U stands 0.0968.
Consider C38A G57C, for which the self-cleavage stood at 0.157.
To C38A G57A belongs 0.0809; to C38G U60A, 0.116.
To C38G G57A belongs 0.0627; to C38A C46A, 0.0508.
Take A36U C65A: the self-cleavage is 0.502.
Under C38G C65G stands 0.0624.
Under A39G A49U stands 0.0948; under C37G U55G, 0.119.
Under C37A A43G stands 0.0981.
As to A36U C66U, the self-cleavage came to 0.166.
To A36U C66G belongs 0.338.
Regarding C38G U55C, the self-cleavage amounted to 0.0193.
Under C38U C65G stands 0.164; under A39G U55A, 0.0918.
To C38A G42A belongs 0.111; to C37G C38G, 0.0384; to C37G C38A, 0.152.
To C37A C46U belongs 0.0922; to C38A A39U, 0.206; to A39U A47U, 0.164.
As to A39C U70A, the self-cleavage came to 0.188.
Under A39C U70G stands 0.232; under C37G U62C, 0.152; under C38U U70G, 0.39.
Under A36U A59G stands 0.19; under A39C G42A, 0.191.
For the variant A39C G42C, the self-cleavage came out at 0.169.
A39G G68U: the self-cleavage amounted to 0.107.
Under C37G U53G stands 0.238; under C37G U53C, 0.586; under C37A U60G, 0.171.
Under C37U A59U stands 0.16.
Under A36U U53C stands 0.593; under A36U A71U, 0.524.
For A36U A71G, the self-cleavage worked out at 0.829.
As for A36U A49G, the self-cleavage came out at 0.281.
In the case of C38A A45G, the self-cleavage was 0.104.
Under C38A A45U stands 0.143.
Under A39G G40U stands 0.116.
As for A39G G40C, the self-cleavage was determined as 0.0572.
To A39G G54C belongs 0.131.
To A39G G54A belongs 0.143.
To C38A A41C belongs 0.183; to C38A A41U, 0.286; to C37G A45U, 0.188.
Take C37G A45G: the self-cleavage worked out at 0.103.
For the variant A39G C48G, the self-cleavage turned out to be 0.0932.
To C37A A45C belongs 0.189.
Consider A39C A47U, for which the self-cleavage is 0.151.
Under A39G A61U stands 0.152; under C37U G68A, 0.257.
As to C37U U63C, the self-cleavage amounted to 0.0912.
To C37U U63A belongs 0.24.
To C37A A64U belongs 0.392; to A39C G57U, 0.16; to A39C G57C, 0.127.
Under C38G U62G stands 0.0875; under A39U A64G, 0.116; under C37A C38U, 0.0834.
As to C37A C38A, the self-cleavage was determined as 0.144.
A39U G56C: the self-cleavage was 0.169.
Under A39U G56U stands 0.189; under C38U U60G, 0.431.
To C37U U58G belongs 0.553; to C37U U58A, 0.48; to C37A A41U, 0.429.
Under C37A A41C stands 0.365; under C38G G42A, 0.103.
A39C U63C: the self-cleavage came out at 0.122.
To C37G G51U belongs 0.405; to A36U A47C, 0.146.
To A39G A64G belongs 0.275.
Under C38U U63C stands 0.128; under C38U U63G, 0.186; under C37U A47C, 0.16.
As for C38A U70A, the self-cleavage was found to be 0.165.
Under C38A U55A stands 0.133.
Under C38A U55G stands 0.183.
Under C38A G69A stands 0.146; under C38U G42C, 0.177; under C38U G42U, 0.2.
With C38U U53A, the self-cleavage turned out to be 0.731.
Under C38U U53C stands 0.823.
Under C38U U53G stands 0.431.
Under C37U C48U stands 0.144; under C37G U67A, 0.263.
As for A39G C66U, the self-cleavage was 0.194.
Under A39G C66A stands 0.101.
To C38G A39U belongs 0.209; to C38G G68A, 0.247; to C38A U63C, 0.0636.
To A36U A61U belongs 0.213; to A36U A61G, 0.156.
As to A39G U60A, the self-cleavage is 0.228.
For the variant A39G A44U, the self-cleavage is 0.103.
Under A36U G54U stands 0.325; under C38A G54U, 0.135; under C38A G54A, 0.0977.
To C38A G54C belongs 0.164; to C38G U70A, 0.144; to A39C A41C, 0.349.
Under C38G A41C stands 0.264; under C38G A41G, 0.618.
For the variant A39C A71C, the self-cleavage worked out at 0.88.
To C38G C48G belongs 0.071; to C38G C48U, 0.108.
To A36U A64C belongs 0.0976.
Under A36U A64G stands 0.219.
In the case of A39G A43C, the self-cleavage turned out to be 0.137.
To A36U C37A belongs 0.184.
To A36U C37U belongs 0.21; to A39G G51U, 0.36; to A39G G51C, 0.232.
Regarding A39C U55C, the self-cleavage turned out to be 0.188.
As for A39C G54C, the self-cleavage was 0.213.
Under A39G C50A stands 0.196; under A39G C50U, 0.148.
Under C37A G40A stands 0.174.
Under C37A G40C stands 0.158.
